These results are taken from publication PMC6566107, “Molecular Analysis of Protein-Protein Interactions in the Ethylene Pathway in the Different Ethylene Receptor Subfamilies” (Frontiers in Plant Science, 2019).

For assay [1], the target named is T1, Arabidopsis thaliana ethylene receptor ETR2 (AtETR2), full-length, type-II subfamily (Arabidopsis thaliana, UniProt Q0WPQ2 1-773, Alexa Fluor 488 succinimidyl-ester label where used as the labeled partner in MST).
T1 construct: ETR2, Arabidopsis thaliana, UniProt Q0WPQ2, full-length, codon optimized cDNA according to NCBI NM_113216.3; The thrombin site of pGEX-4T-1 was changed to a TEV site (ENLYFQG); No cleavage is described; The purified protein runs at an apparent 120 kDa, so GST is probably still attached; The same construct was used with and without the Alexa Fluor 488 label; source: E. coli C43 (DE3), solubilised …
T1 sequence (looked up): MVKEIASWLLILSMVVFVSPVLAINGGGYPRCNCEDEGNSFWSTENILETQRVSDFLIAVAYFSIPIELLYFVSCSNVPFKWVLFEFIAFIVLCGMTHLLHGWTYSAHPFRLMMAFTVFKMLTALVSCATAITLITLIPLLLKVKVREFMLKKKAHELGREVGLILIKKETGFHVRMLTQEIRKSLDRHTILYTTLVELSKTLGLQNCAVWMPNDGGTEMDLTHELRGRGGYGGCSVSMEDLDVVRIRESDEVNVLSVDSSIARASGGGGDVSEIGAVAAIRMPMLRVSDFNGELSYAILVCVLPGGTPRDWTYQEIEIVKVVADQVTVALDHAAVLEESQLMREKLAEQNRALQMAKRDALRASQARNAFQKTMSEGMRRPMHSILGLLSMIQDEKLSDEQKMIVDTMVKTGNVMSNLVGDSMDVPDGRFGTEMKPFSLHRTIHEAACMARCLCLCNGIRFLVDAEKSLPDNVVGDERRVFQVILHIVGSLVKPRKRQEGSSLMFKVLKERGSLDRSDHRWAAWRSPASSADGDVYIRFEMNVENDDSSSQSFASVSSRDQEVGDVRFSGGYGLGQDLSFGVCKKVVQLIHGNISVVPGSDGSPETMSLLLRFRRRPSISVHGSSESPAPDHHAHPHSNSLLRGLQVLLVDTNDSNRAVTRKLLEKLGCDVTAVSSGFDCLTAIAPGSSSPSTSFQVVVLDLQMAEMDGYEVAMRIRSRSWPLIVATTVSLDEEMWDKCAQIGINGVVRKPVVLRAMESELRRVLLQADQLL
The assay can be described thus: MST; 40 nM Alexa Fluor 488-labeled receptor (AtETR1 or AtETR2); unlabeled AtETR1 or AtETR2 (4 µM to 0.49 nM) or ETR1-TM C4SC6S (16 µM to 0.98 nM) titrated; 0.0075% (w/v) FosCholine-16; 60% MST power; 1:1 model. The note with it: both partners purified.

The target in assay [2] is T2, Arabidopsis thaliana ethylene receptor ETR1 (AtETR1), full-length, type-I subfamily (Arabidopsis thaliana, UniProt P49333 1-738, Alexa Fluor 488 succinimidyl-ester label where used as the labeled partner in MST).
T2 construct: ETR1, Arabidopsis thaliana, full-length receptor; source: recombinant, expressed and purified as described in Milić et al., 2018, in FosCholine-16
T2 sequence (looked up): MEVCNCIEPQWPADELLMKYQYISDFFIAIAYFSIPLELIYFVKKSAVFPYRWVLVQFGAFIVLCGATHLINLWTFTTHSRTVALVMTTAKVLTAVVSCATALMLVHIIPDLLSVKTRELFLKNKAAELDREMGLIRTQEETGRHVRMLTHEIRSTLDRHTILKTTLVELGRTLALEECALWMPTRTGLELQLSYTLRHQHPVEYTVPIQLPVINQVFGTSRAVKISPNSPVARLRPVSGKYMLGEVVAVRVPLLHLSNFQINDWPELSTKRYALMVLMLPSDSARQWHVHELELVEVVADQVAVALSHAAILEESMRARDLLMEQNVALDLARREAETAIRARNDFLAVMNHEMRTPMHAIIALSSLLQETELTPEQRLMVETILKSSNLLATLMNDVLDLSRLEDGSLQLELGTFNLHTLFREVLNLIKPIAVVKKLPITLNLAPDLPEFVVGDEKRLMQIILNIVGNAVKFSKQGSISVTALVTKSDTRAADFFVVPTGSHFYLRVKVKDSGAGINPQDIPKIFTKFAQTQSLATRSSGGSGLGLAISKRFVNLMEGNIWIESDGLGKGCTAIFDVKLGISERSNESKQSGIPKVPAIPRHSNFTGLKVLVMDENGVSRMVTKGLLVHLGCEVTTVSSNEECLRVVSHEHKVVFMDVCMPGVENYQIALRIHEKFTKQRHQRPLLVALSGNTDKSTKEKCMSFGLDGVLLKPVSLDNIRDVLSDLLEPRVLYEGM
The description is as above. The note with it: both partners purified.

B1: Isolated transmembrane domain of AtETR1 (aa 1-157) with C4S and C6S (domain or fragment, Arabidopsis thaliana, UniProt P49333 1-157, looked up)
chain: MEVSNSIEPQWPADELLMKYQYISDFFIAIAYFSIPLELIYFVKKSAVFPYRWVLVQFGAFIVLCGATHLINLWTFTTHSRTVALVMTTAKVLTAVVSCATALMLVHIIPDLLSVKTRELFLKNKAAELDREMGLIRTQEETGRHVRMLTHEIRSTL
notes: ETR1, Arabidopsis thaliana, transmembrane domain, residues 1-157, cysteines 4 and 6 changed to serine; also called ETR1-TM^C4SC6S; AtETR1-TM^C4SC6S
B1: the binding result in assay [1] and in assay [2] was “binds” each time.
